From patent US20200010853, “METHOD FOR INSERTING DESIRED DNA FRAGMENT INTO SITE LOCATED ADJACENT TO BINDING DOMAIN OF DNA-BINDING PROTEIN” (KYUSHU UNIVERSITY, NATIONAL UNIVERSITY CORPORATION, published 2020)

Biological target: Tn5 transposase (UniProt Q46731 Q46731:1-476)
Assay: free adaptor added to Tn5 in fixed cells; integration with 5 mM MgCl2, 37 C; binding not measured separately
Settings: chain copies: 2; partial duplex with 5' overhang
Description: Subsequently, TN5 transposase was added to the sample at a concentration of 85 μg/mL, and incubated at room temperature for 10 minutes. Thereby, transposase was bound to the transposase-binding sequence in the DNA fragment labeled to the nucleic acid-labeled secondary antibody.
Subsequently, a free DNA fragment (hereinafter, referred to as “oligo3-4”) having a transposase-binding sequence was added to the sample, reacted at room temperature for 1 hour, and then washed with PBS. The oligo3-4 was obtained by annealing a DNA fragment having a base sequence described in the Seq ID No. 3 and a DNA fragment having a base sequence described in the Seq ID No. 4. A double stranded DNA domain of the oligo3-4 was a binding sequence of TN5 transposase.

Sequence of Tn5 transposase (Q46731 whole entry, one chain of several): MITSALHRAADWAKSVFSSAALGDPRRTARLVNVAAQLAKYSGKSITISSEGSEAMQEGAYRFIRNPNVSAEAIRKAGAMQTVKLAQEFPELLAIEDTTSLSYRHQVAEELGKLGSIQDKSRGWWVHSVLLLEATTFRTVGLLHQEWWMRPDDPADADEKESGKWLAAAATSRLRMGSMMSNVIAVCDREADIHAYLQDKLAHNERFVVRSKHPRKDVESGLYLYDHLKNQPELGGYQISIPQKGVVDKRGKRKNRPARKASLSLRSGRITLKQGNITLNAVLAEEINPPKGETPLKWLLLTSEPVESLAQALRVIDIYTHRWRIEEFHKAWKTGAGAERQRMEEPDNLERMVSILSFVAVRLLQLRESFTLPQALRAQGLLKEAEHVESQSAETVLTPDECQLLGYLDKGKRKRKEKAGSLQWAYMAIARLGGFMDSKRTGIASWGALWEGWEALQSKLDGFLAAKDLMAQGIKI

B1: oligo3-4 free Tn5 adaptor (mixed)
DNA 1: GTCTCGTGGGCTCGGAGATGTGTATAAGAGACAG
DNA 2: CTGTCTCTTATACACATCT
- binding result: binds
